The subject of the assay is differentiated PLB-985 cells. Put plainly: Quantifying DNA released (adherent NET-DNA) after PMA stimulation by spectrophotometry. The assay is classed as cell-based, human. As to conditions: 10 μM DX1 one hour, 300 nM PMA four hours; PMA control 4.50±0.14; N=3. The method, then:
The results of the DAPI and SYTOX™ Green staining studies in FIG. 2C, 2D are consistent with DX1-mediated inhibition of chromatin decondensation and DNA release by differentiated PLB-985 cells. To further probe this effect, DNA-protein release was measured by differentiated PLB-985 cells after PMA stimulation by resuspending and quantifying DNA-protein complexes adherent to wells by spectrophotometry using a previously described protocol for isolation and quantification of NET-DNA in cell culture. This assay is based on the concept that intact cells for the most part remain in suspension, while DNA-protein complexes released in NETs are at least partially adhered to wells. This distinction allows for separation of intact cells from adherent NET-DNA by aspiration of the cell culture supernatants, followed by resuspension of adherent DNA-protein complexes and quantification by spectrophotometry.
Next, the ability of this assay to detect the effect of a known NETosis inhibitor on DNA release by differentiated PLB-985 cells stimulated by PMA was verified. […] Differentiated PLB-985 cells were treated with 0-50 μM of GSK484 for one hour prior to stimulation with PMA, followed by quantification of adherent DNA by spectrophotometry. […]

This note sets out measurements from patent US20250188194A1, “Method of treatment” (Nucleus Therapeutics Pty Ltd, priority 2021, published 2025).

B1: DX1: 3E10 derivative, a di-scFv having the sequence SEQ ID NO: 38; nuclear-penetrating anti-DNA binding protein (protein)
scFv: DIQMTQSPSSLSASLGDRATITCRASKTVSTSSYSYMHWYQQKPGQPPKLLIKYASYLESGVPSRFSGSGSGTDFTLTISSLQPEDAATYYCQHSREFPWTFGGGTKVEIKTVDAAPGGGGSGGGGSGGGGSEVQLVESGGGLVQPGGSLRLSCAASGFTFSNYGMHWVRQAPGKGLEWVSYISSGSSTIYYADSVKGRFTISRDNAKNSLYLQMNSLRAEDTAVYYCARRGLLLDYWGQGTTVTVSSASTKGPSVFPLAPLESTGSDIQMTQSPSSLSASLGDRATITCRASKTVSTSSYSYMHWYQQKPGQPPKLLIKYASYLESGVPSRFSGSGSGTDFTLTISSLQPEDAATYYCQHSREFPWTFGGGTKVEIKTVDAAPGGGGSGGGGSGGGGSEVQLVESGGGLVQPGGSLRLSCAASGFTFSNYGMHWVRQAPGKGLEWVSYISSGSSTIYYADSVKGRFTISRDNAKNSLYLQMNSLRAEDTAVYYCARRGLLLDYWGQGTTVTVSS
modifications: DX1 sequence
For the molecule B1, the “released/adherent DNA content relative to unstimulated control cells” value turned out to be 1.80±0.11.
